Measurements reported in the supplement of paper PMC9170038.

Test system: MS2 coat protein
Test: apparent KD of MS2 coat protein; designed switch direction (-1 OFF switch, 1 ON switch): -1; higher = weaker reporter binding
How it was run: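 Each step of the titration lasted 0.8–1.5 h at the lowest concentration and 10–20 min at the highest. The protein, SNAP-549-labelled MS2 coat protein, went from 0.7 or 1.5 nM doubling to 3 µM over RNA switches transcribed on Illumina chips by stalled E. coli RNA polymerase. Normalised cluster fluorescence was curve-fitted, and the per-design median over clusters is given as apparent KD.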

[1] = Eterna round: R95, input ligand: FMN 200 uM
[2] = Eterna round: R95, input ligand: microRNA oligo, concentration not stated
[3] = Eterna round: R95, input ligand: none
[4] = input ligand: microRNA oligo, concentration not stated

Sequence	apparent KD of MS2 coat protein (input ligand: FMN 200 uM)	apparent KD of MS2 coat protein (input ligand: none)	apparent KD of MS2 coat protein [1]	apparent KD of MS2 coat protein [2]	apparent KD of MS2 coat protein [3]	apparent KD of MS2 coat protein [4]
CCCGGGAGUCAGGAUAUCUCCGAGGAGUAUCAGAGAGAAGGGACUACUUGAGGAUCACCCAAGUAGGUGUAAAA [Enleteerre] (Eterna round: R97, puzzle: Exclusion 6)	28.8 nM	20.2 nM	–	–	–	–
GGUGAGCGAGGAUAUACAUGAGGAUCACCCAUGUGAGAGAAAUAAGUGAGGAAGAAAAGUAGAAGGCGCGAACG [Mat - Exclusion 3 - Mod of Salish D46] (puzzle: Exclusion 3)	–	–	114 nM	25.3 nM	29.3 nM	–
CAUGAUUGGGAAGGAUAUUGACCUAGUUAGUGCCGAGAAGGUCCCUUUCACAUGAGGAUCACCCAUGUGAGUCUGGUGUUCGAG [Ex NG1 #97] (Eterna round: R96, puzzle: Exclusion NG 1)	43.1 nM	30.5 nM	–	–	–	23.7 nM
CAUACAGUAGUUAGGAUAUUGCAACGUACACGGAACGAGAAGGGACAUGAGGAUCACCCAUGUAGAUUGUAAAG [EX-4 Malc #8] (puzzle: Brourd's mod of Exclusion 4)	–	–	–	20 nM	–	–
CAGGUGUUAGGAUAUCGGAGAUCGAGGCCGACGGGAAAAGCCGAGAAGGAACAUGAGGAUCACCCAUGUAGGUG [JR_Exclu4_Sub035] (puzzle: Exclusion 4)	–	–	347 nM	235 nM	223 nM	–
ACUUAUUGAGGAUAUACAGAAAAUUACAUGAGGAUCACCCAUGUUCUUCAAUGUAUAUAUGUAGAAGGCAGAAGAA [JL-ex5-4.26 Malcolm mod] (Eterna round: R97, puzzle: Exclusion 5)	29.3 nM	12.9 nM	–	–	–	–
AAGAAGUAAGGAUAUGGCCGGGUCCCUGGGUUUGGACCCGGCUAGAAGGUACAUGAGGAUCACCCAUGUAAGAA [Excls4-IX] (puzzle: Exclusion 4)	–	–	–	13.1 nM	–	–
GCUGGUCAAGGAUAUACAUGAGGAUCACCCAUGUAGAUCAACCAGCGAUAGCUGGAAUGUAGAAGGUGACCAGC [E3/5-C1] (Eterna round: R97, puzzle: Exclusion 3)	48.4 nM	15.5 nM	–	–	–	–
CUGAUGUUAGGAUAUCAGGCGCCCGCCACUAGCAGGGCGCAUGAGAAGGGACAUGAGGAUCACCCAUGUAGUAA [Anbionxe] (puzzle: Exclusion 4)	–	–	–	27.3 nM	–	–
ACCUCACAUGAGGAUCACCCAUGUCAGGAUAUCUAAUGUAGUCGCGUUCCCGACGCUAAGAGAAGGGACGUUAA [EX1 #35] (Eterna round: R97, puzzle: Exclusion 1)	14.6 nM	16.1 nM	–	–	–	–
AAAUGGGCGUAGGAUAUGAGAUGGUCUAGCAGCUCAGAAGGACGCACAUGAGGAUCACCCAUGUGAUCGGACUA [Celebidi] (Eterna round: R96, puzzle: Exclusion 6)	281 nM	34.8 nM	–	–	–	27.8 nM
CAUGGAACGUAGGAUAUCUCACAGCCAGGCUGCAGAGAAGGACGUACAUGAGGAUCACCCAUGUAUGAUCCAAA [Tius] (puzzle: Exclusion 6)	–	–	26.9 nM	15.5 nM	17.5 nM	–
AUCUACCGAGCAGGAUAUCCAGGCACAUGAGGAUCACCCAUGUCAGGGAGAGAAGUUGUUUGCGUGGAGAAGGGCUAUAAAUUA [Isdiatte] (Eterna round: R96, puzzle: Exclusion NG 2)	314 nM	162 nM	–	–	–	163 nM
CUAGCGAAUGUAGGAUAUCGGACUGUUUCAGUCUGAGAAGGACAUGAGGAUCACCCAUGUGAAGCUACGUGAGUAGCACGCUAG [JL ENG1 3.86] (Eterna round: R96, puzzle: Exclusion NG 1)	111 nM	23.2 nM	–	–	–	18.7 nM
